B1: Dystrobrevin alpha, residues 235 to 294; numbered along this chain, Q9Y4J8 (parent)
chain: ENVFHPVECSYCHSESMMGFRYRCQQCHNYQLCQDCFWRGHAGGSHSNQHQMKEYTSWKS

Variants of: B1
Assay: abundance fitness (aPCA) (normalised: wild type 0, dead -1); higher = more abundant; growth selection in yeast, the domain comes from the species named
Details: Homo sapiens

Abundance fitness, by site and new letter:
Q34: A -0.053 | P -0.163 | S -0.087 | W -0.606 | F -0.394 | H -0.156 | D -0.267 | K 0.127 | G -0.027 | Y -0.147 | T -0.19 | R -0.047 | V -0.169 | N -0.146 | L -0.423 | E 0.044 | M -0.302
F37: N -0.401 | C -0.473 | P -0.62 | R -0.098 | Y -0.052 | T -0.439 | V -0.045 | H -0.092 | Q -0.003 | A -0.043 | W -0.051 | D -0.488 | L -0.232 | M 0.081 | I -0.087 | G -0.348 | E -0.101 | S -0.278
H46: G -0.165 | K -0.117 | Q -0.331 | E -0.198 | R -0.189 | A -0.186 | I -0.366 | Y -0.538 | W -0.427 | M -0.17 | L -0.419 | P -0.27 | F -0.514 | V -0.227 | C -0.366 | D -0.2 | N -0.316 | T -0.219
N48: L -0.22 | V 0.037 | E -0.167 | A 0.007 | M -0.149 | H -0.174 | P 0.108 | I -0.177 | T -0.042 | W -0.532 | K -0.248 | G -0.045 | C -0.063 | F -0.274 | Y -0.318 | R -0.182 | Q -0.084
Q51: L -0.153 | I 0.009 | W -0.517 | M -0.334 | K 0.046 | S 0.062 | D 0.101 | H -0.319 | G -0.234 | A -0.066 | N -0.095 | T 0.042 | V -0.117 | P -0.091 | F -0.536 | Y 0.077 | C -0.148
W38: M 0.37 | P -0.146 | S 0.343 | L 0.167 | C 0.215 | N 0.308 | A 0.305 | R 0.364 | K 0.191 | I 0.318 | Q 0.228 | Y 0.214 | D 0.288 | E 0.287 | V 0.13 | H 0.014 | F 0.099 | T 0.349
C36: L -0.817 | S -0.992 | Y -0.734 | G -0.596 | P -0.565 | F -0.994 | Q -0.723 | V -0.873 | R -0.695 | A -0.881 | W -0.94 | I -0.733 | K -0.192 | M -0.723 | D -0.624
D35: F 0.197 | Q -0.204 | A -0.093 | C -0.113 | P 0.025 | V -0.084 | Y 0.011 | N 0.069 | W -0.33 | G -0.235 | S -0.033 | H 0.001 | M -0.022 | R -0.089 | I -0.113
G44: L -0.621 | C -0.362 | Y -0.411 | N -0.285 | F -1.15 | D 0.077 | S -0.209 | P -0.523 | T -0.26 | E -0.303 | Q -0.841 | I -0.719 | W -0.616 | M -0.384 | K -0.177 | V -0.234 | H -0.818
Q49: V -0.034 | S 0.029 | F -0.138 | D 0.128 | R 0.017 | G 0.103 | L -0.003 | K -0.14 | N 0.019 | Y -0.256 | T 0.072 | I -0.205 | P -0.249 | C -0.083 | H -0.141 | A 0.073
A42: G -0.026 | K -0.224 | E 0.081 | T -0.054 | D -0.253 | N -0.077 | Q -0.071 | W -0.29 | L -0.285 | Y -0.381 | I -0.372 | P -0.421 | V 0.005 | R -0.032 | H 0.05 | M -0.04
H50: I -0.524 | C -0.301 | M -0.503 | W -0.624 | V -0.686 | L -0.622 | E -0.516 | F -0.755 | Q -0.509 | D -0.411 | G -0.493 | N -0.493 | K -0.438 | Y -0.527 | P -0.463 | A -0.543
S47: H -0.091 | R -0.118 | L -0.333 | E -0.028 | I -0.25 | D 0.044 | N 0.029 | Y -0.57 | W -0.051 | Q -0.031 | G -0.22 | C -0.103 | K 0.038 | P -0.172 | M -0.322 | A -0.349 | F -0.455 | V -0.199
H41: G -0.312 | K 0.089 | R 0.067 | A 0.013 | Q 0.146 | P -0.192 | W -0.323 | D -0.296 | I -0.284 | M -0.014 | V 0.122 | N 0.063 | Y -0.127 | L -0.038 | F -0.044 | C 0.013 | E -0.09 | S 0.037
G43: W -0.208 | P -0.765 | F -0.542 | A -0.325 | D 0.325 | V -0.352 | N 0.121 | T -0.139 | H -0.09 | C -0.034 | E 0.087 | S 0.09 | L -0.221 | M -0.068 | I -0.685
C33: W -0.811 | H -0.659 | L -0.874 | I -0.884 | Y -0.954 | M -0.823 | R -0.675 | K -0.983 | N -0.592 | T -0.944 | Q -0.609 | V -0.836 | G -0.78 | F -0.625 | S -0.658
R39: T -0.107 | G 0.011 | W -0.282 | V -0.202 | Q 0.116 | Y -0.099 | M -0.072 | N 0.086 | A 0.142 | F -0.34 | K 0.228 | P -0.495 | I -0.308 | S 0.062 | C -0.071 | H 0.092 | L -0.08 | D -0.083 | E 0.074
M52: G -0.554 | N -0.764 | S -0.628 | Q -0.294 | Y -0.18 | L -0.248 | C -0.194 | R -0.792 | W -0.449 | H -0.87 | K -0.62 | E -0.567 | P -0.478 | D -0.471 | I -0.3 | V -0.025 | F -0.005
S45: M -0.269 | Y -0.605 | L -0.163 | I -0.394 | P -0.043 | W -0.287 | D 0.163 | N -0.13 | C 0.06 | R -0.159 | E 0.065 | T 0.098 | Q -0.121 | H -0.291 | G 0.099 | K 0.031
G40: C -0.227 | D -0.166 | Q -0.281 | W -0.352 | S -0.229 | L -0.384 | A -0.391 | M -0.404 | E -0.284 | I -0.27 | T -0.366 | R -0.206 | K -0.045 | V -0.266 | N -0.138 | F -0.193

Reference: the Human Domainome abundance scans (Beltran et al. 2025)
